Where no end group is shown, it is not given here. fluorescein = fluorescein label covalently attached to the C-terminal cysteine
Target: T1, cpSRP43-FL (Arabidopsis thaliana, UniProt O22265 57-373)
T1 sequence (looked up): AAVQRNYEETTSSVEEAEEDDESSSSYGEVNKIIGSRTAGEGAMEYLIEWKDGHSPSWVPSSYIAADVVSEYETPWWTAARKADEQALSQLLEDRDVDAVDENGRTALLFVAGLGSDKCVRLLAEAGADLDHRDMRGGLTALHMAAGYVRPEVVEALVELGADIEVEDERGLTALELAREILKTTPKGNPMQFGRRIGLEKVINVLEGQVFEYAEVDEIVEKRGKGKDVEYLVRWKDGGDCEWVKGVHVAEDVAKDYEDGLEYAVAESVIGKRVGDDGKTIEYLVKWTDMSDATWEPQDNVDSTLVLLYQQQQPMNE
Experiment: fluorescence polarisation

binding result: binds
Binder: QKQKAPPGTARRKRKAC(fluorescein) [fluorescein-labeled cpSRP54M peptide]

— publication PMC8879858 (Nature plants, 2021)
